In patent publication US20250312444A1 (BEIJING TUO JIE BIOPHARMACEUTICAL, published 2025):

Experiments:
human RXFP1 receptor [1] = biological target: T1, human RXFP1 receptor (human, UniProt Q9HBX9 1-757); experiment: cell-based or functional assay
T1 sequence (looked up): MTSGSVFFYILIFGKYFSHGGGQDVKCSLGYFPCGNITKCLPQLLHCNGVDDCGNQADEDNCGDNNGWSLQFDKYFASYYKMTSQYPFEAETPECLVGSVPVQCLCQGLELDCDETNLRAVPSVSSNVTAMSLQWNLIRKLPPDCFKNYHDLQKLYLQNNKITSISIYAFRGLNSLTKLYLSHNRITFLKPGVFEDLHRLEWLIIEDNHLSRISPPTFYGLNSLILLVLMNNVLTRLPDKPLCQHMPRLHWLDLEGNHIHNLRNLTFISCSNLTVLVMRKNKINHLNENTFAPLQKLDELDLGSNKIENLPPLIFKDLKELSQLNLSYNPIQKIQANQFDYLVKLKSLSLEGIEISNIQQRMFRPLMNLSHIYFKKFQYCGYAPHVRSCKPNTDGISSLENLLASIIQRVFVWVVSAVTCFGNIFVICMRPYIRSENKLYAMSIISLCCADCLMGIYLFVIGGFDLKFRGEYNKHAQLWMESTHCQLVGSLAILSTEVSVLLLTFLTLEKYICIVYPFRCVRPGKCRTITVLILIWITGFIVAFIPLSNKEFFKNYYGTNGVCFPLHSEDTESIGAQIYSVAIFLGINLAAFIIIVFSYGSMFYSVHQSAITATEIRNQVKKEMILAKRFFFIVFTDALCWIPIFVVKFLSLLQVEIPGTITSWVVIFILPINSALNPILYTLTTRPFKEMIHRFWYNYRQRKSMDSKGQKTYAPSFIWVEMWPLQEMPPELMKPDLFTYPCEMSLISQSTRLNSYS

human RXFP2 receptor = human RXFP2 receptor (human, UniProt Q8WXD0 1-754); experiment: cell-based or functional assay
human RXFP1 receptor [2] = biological target: T1, human RXFP1 receptor; experiment: cell-based or functional assay; remark: listed apart in the source
rat serum albumin [3] = biological target: T2, rat serum albumin (rat); experiment: SPR Biacore T200, fusion protein captured by anti-VHH antibody, albumin as analyte
T2 chain: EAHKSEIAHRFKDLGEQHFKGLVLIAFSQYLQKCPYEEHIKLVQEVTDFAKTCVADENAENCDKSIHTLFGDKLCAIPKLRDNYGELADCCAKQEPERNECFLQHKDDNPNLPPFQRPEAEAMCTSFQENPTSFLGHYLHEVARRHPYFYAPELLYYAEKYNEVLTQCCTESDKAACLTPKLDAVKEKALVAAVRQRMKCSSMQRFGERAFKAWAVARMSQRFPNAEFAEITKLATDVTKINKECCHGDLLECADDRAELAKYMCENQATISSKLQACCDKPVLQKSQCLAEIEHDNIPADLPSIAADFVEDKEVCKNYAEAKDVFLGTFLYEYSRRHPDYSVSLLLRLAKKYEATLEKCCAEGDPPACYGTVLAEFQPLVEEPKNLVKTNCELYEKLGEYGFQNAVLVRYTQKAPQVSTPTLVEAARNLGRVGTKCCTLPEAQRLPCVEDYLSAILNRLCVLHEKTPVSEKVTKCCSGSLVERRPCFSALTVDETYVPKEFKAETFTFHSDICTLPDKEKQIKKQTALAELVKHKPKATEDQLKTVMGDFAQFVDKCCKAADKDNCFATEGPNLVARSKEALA
Protocol: (§1) Coupling of an anti-VHH antibody (MonoRab™ Rabbit Anti-Camelid VHH Cocktail, Genescript, Cat No. A02014) to an S series CM5 sensor chip (GE, Cat No. 29-1049-88) was performed using an amino coupling kit (GE, Cat No. BR-1000-50). The antibody was diluted to 10 μg/mL with 10 mM sodium acetate (pH 4.5) (GE, Cat No. BR-1003-50). After the CM5 chip was activated with EDC/NHS, the diluted anti-VHH antibody was flowed over the chip to reach a surface response value of about 5000 RU, and then the chip was blocked with ethanolamine for later use.
(§2) The albumin from each species was serially diluted in a gradient with 1XHBS-EP (10 mM HEPES, pH 7.4, 150 mM NaCl, 3 mM EDTA, 0.05% Surfactant P20). The test fusion protein molecule was captured using the anti-VHH antibody-coupled chip, with a response value of about 30 RU. Then, different concentrations of serum albumin were flowed over the surface of the chip for 3 min at a flow rate of 50 μL/min, with a dissociation time of 1-10 min (the dissociation time varied depending on the species of albumin). After the end of each cycle, the chip was regenerated using 10 mM glycine-hydrochloric acid (pH 1.5) (GE, Cat No. BR-1003-54). The reaction signals were detected in real-time using Biacore T200 (GE) to obtain the association and dissociation curves, and the data obtained were fitted with a Langmuir 1:1 binding model using the BIAevaluation version 4.1 software at appropriate concentration points to obtain the affinity values.

[4] = biological target: human serum albumin (HSA) (human); experiment: as above
Protocol: as §1, §2

rat serum albumin [5] = biological target: T2, rat serum albumin; experiment: SPR Biacore T200, albumin amine-coupled, fusion protein as analyte
Protocol: (§3) Coupling of serum albumins from different species to an S series CM5 sensor chip (GE, Cat. 29-1049-88) was performed using an amino coupling kit (GE, Cat No. BR-1000-50). The albumin from each species was diluted to 2 μg/mL. After the CM5 chip was activated with EDC/NHS, the diluted albumin was flowed over the chip to reach a surface response value of about 200 (180 to 230) RU, and then the chip was blocked with ethanolamine. The blank control channel also needed to be activated with EDC/NHS and blocked with ethanolamine. […] The samples of 0051 and 0054 at different concentrations were separately flowed through the albumin-coupled and blank channels for 3 min at a flow rate of 50 μL/min, with a dissociation time of 4 min. After the end of each cycle, the chip was regenerated using 10 mM glycine-hydrochloric acid (pH 1.5) (GE, Cat. #BR-1003-54). The reaction signals were detected in real-time using Biacore T200 (GE) to obtain the association and dissociation curves, and the data obtained were fitted with a Langmuir 1:1 binding model using the BIAevaluation version 4.1 software at appropriate concentration points to obtain the affinity values.

[6] = biological target: human serum albumin (HSA) (human); experiment: as above
Protocol: as §3

[7] = biological target: mouse serum albumin (mSA) (mouse); experiment: as above
Protocol: as §3

EC50 (nM), cAMP production in THP1 cells, 1% HSA (human RXFP1 receptor [1]): 28.4 nM | EC50 (nM), cAMP production in THP1 cells, without HSA (human RXFP1 receptor [1]): 3.83 nM | EC50 (nM), cAMP production in CHO-K1 cells with receptor overexpression (human RXFP2 receptor): 1250 nM | EC50 (nM), cAMP production in CHO-K1 cells with receptor overexpression (human RXFP1 receptor [2]): 28.3 nM | Kd (rat serum albumin [3]): 156 nM | koff (rat serum albumin [3]): 0.00581 s⁻¹ | kon (rat serum albumin [3]): 37200 M⁻¹ s⁻¹ | Kd [4]: 20.2 nM | koff [4]: 0.0011 s⁻¹ | kon [4]: 54500 M⁻¹ s⁻¹ | Kd (rat serum albumin [5]): 1.95 nM | koff (rat serum albumin [5]): 0.00439 s⁻¹ | kon (rat serum albumin [5]): 2.25e+06 M⁻¹ s⁻¹ | Kd [6]: 0.0422 nM | koff [6]: 0.000207 s⁻¹ | kon [6]: 4.91e+06 M⁻¹ s⁻¹ | Kd [7]: 37.9 nM | koff [7]: 0.0471 s⁻¹ | kon [7]: 1.24e+06 M⁻¹ s⁻¹
B1: 0051 (other)
chain: EVQLLESGGGLVQPGGSLRLSCAASGFTFLTSCMGWFRQAPGKEREGVSSIYTVGGSTFYTNSVKGRFTISRDNSKNTLYLQMNSLRAEDTAVYYCAAGSPARCRLRDPTTFDYWGQGTLVTVSSGGGGQGGGGQGGGGQGGGGQGGGGQSWMEEVIKLCGRELVRAQIAICGMSTWSGGGSGGSGGGQLYSALANKCCHVGCTKRSLARFC
notes: Single-chain fusion: anti-HSA VHH, linker, relaxin-2 B chain, linker, relaxin-2 A chain; also called fusion protein 0051; molecule 0051
